Laboratory results reported in article doi:10.1101/509299 (bioRxiv, 2019).

Target: integrin αIIbβ3 on K562 cells stably expressing recombinant αIIbβ3 (αIIbβ3-K562) (UniProt P08514 32-1039; P05106 27-788)
Assay: flow cytometry on cells

B1: Eptifibatide (peptide)
chain: RGDWPC
modifications: homoarginine (Har) at position 2
In the case of B1, the IC50 is reported as 73.2 nM.
